According to patent publication US20210221874A1 (TRUSTEES OF TUFTS COLLEGE, published 2021):

Tests used:
[1] = molecular target: T1, anthrax protective antigen, wild type PA83 (Bacillus anthracis, UniProt P13423 30-764); assay: SPR (Biacore 3000)
T1 construct: mature

[2] = molecular target: T1, anthrax protective antigen, wild type …
[3] = molecular target: T1, anthrax protective antigen, wild type …; assay: dilution ELISA on PA-coated plates
[4] = molecular target: T1, anthrax protective antigen, wild type …; assay: cell-based or functional assay
[5] = molecular target: T1, anthrax protective antigen, wild type …; assay: cell-based or functional assay; remark: listed apart in the source
[6] = molecular target: T1, anthrax protective antigen, wild type …; assay: SPR (ProteOn XPR36)

T1 sequence (P13423 30-764): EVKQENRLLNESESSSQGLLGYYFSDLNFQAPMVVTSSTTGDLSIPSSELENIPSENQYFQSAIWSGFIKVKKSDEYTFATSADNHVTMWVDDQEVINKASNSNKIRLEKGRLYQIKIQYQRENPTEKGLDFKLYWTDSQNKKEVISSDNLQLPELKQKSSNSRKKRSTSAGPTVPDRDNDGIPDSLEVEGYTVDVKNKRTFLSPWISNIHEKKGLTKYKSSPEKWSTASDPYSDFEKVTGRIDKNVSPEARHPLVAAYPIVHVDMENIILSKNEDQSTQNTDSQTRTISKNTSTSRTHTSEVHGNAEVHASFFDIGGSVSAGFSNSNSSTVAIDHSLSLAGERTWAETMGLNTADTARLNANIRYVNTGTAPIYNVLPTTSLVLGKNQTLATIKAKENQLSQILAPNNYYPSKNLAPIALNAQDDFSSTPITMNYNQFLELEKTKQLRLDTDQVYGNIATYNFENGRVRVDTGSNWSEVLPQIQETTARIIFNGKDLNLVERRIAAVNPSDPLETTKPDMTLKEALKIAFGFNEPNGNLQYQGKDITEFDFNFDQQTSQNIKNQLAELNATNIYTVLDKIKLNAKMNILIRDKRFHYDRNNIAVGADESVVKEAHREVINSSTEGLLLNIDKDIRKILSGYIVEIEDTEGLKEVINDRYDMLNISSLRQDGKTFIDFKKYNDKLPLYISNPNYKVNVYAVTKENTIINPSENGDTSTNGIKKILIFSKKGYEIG

Binder	Kd [1] [nM]	EC50 (read off the curve) [2] [nM]	EC50 [3] [nM]	IC50 (anthrax lethal toxin neutralization, RAW264.7 macrophages) [4] [nM]	IC50 (read off the curve) [5] [nM]	Kd [6] [nM]
JKH-C7 (VHH, also called JHK-C7) VHH: VQLVESGGGGLVQAGGSLRLSCAASGRTFSGYAMGWFRQAPGKEREFVADISWSGHNTYYGDSVKGRFTISRDTAKNTVYLQMNSLKPEDTAVYYCAAEGARTHLSDSYYFPGLWAEPPVGYWGQGTQVTVSS	7	~2	2	5	~4	–
JIK-B8 (VHH) VHH: SGGGLVQPGGSLGLSCVVASERSINNYGMGWYRQAPGKQRELVAQISSGGTTNYADSVEGRFTISRDNVKKMVHLQVNSLKPEDTAVYYCNSLLRTFSWGQGTQVTVSS	–	–	0.2	1	~1	0.13
JIJ-E9 (VHH) VHH: QVQLVETGGLVQPGGSLRLSCAASRSTTATIYSMNWYRQAPGKQRELVAGMTSDGQTNYATSVKGRFTISRDNAKNTVYLLMNSLKLEDTAVYYCYVKPWRLQGWDYWGQGTQVTVSS	–	–	0.4	30	–	12
JHD-B6 (VHH) VHH: QVQLVESGGGLVQPGGSLRLSCAASGSSFSRYAMRWYRQAPGKQRELVANINSRGTSNYADSVKGRFTISRDNAKNTVYLQMNSLKPEDTAVYYCNAEWLGRSEPSWGQGTQVTVSS	–	–	0.5	10	–	66
JIJ-A12 (VHH) VHH: QVQLVESGGGLVQPGGSLRLSCAASGIIFSIYTMGWYRQAPGKQRELVAAIPSGPSANATDSVGGRFTITRDNAENTVYLQMNDLKPEDTAVYYCNARRGPGIKNYWGQGTQVTVSS	–	–	2	–	–	45
JKH-D12 (VHH) VHH: QVQLVETGGGLVQAGGTLRLSCAASGRTFTSYYIGWFRQEPGKEREFVASIGWTDDNTYYADSVKGRFTISRDNAETTAYLQMSGLKPEDTAVYYCAADYGSGIRAWYNWIYWGQGTQVTVSS	1	–	0.3	–	–	–
JKO-A4 (VHH) VHH: QVQLAESGGGSVQPGGSLRLSCAASGFTFSSYTMSWVRQAPGKGIEWVSDINGGGDRTDYADSVKGRFTISRDNARNTLYLQMNSLQPEDTAVYYCAKDLSYVSGTYFANDWGQGTQVTVSS	10	–	0.3	–	–	–
JIJ-D3 (VHH) VHH: QVQLVETGGLVQPGGSLRLSCAASGLTFSSTAMAWFRQAPGKEREFVARISGAGITIYYSDSVKDRFTISRNNVENTVYLQMNSLKTEDTAVYYCAARRNTYTSDYNIPARYPYWGQGTQVTVSS	–	–	0.3	9	–	18
JKO-B8 (VHH) VHH: QLQLAESGGGLVQPGGSLRLSCTASGIIFDYYSVDWYRQAPGKERELVATITGDGSPNYADSVKGRFTISRDNAKKTVYLQMNGLKPEETAVYYCHAKRTIGTKSEYWGQGTQVTVSS	200	–	> 100	–	–	–
JKM-A6 (VHH) VHH: QLQLAETGGGLVQPGGSLRLSCAASGATLDTYIITWFRQAPGKEREAVSCINRSGSTTYSDSVKGRFTISRDNAQKTVYLQMNSLNPEDTAIYYCAADASYRTCGGSWWNWAYWGQGTQVTVSS	20	–	0.3	–	–	–
JKH-A4 (VHH) VHH: QVQLAETGGGLVQAGGSLRLSCSASGLTFGNYAMGWFRQAPGKEREFVASISRSGSNTWYAEPLKGRFAISRDNDKNALYLQMNSLKPEDTAVYYCAGGSYNSDWWNYMYWGQGTQVTVSS	9	–	0.5	–	–	–
JIK-B10 (VHH) VHH: QVQLVETGGGLVQPGGSLRLSCAASGFTFSSYRMSWYRQAAGKERDVVATITANGVPTGYADSVMGRFTISRDNAKNTVYLEMNSLNPEDTAVYYCNAPRLHTSVGYWGQGTQVTVSS	–	–	0.2	8	–	9
JIJ-B8 (VHH) VHH: SGGGLVQPGGSLSVSCAASGSIARPGAMAWYRQAPGKERELVASITPGGLTNYADSVTGRFTISRDNAKRTVYLQMNSLQPEDTAVYYCHARIIPLGLGSEYRDHWGQGTQVTVSS	–	–	0.4	–	–	8
JKO-E12 (VHH) VHH: QVQLAETGGGLVQAGGSLRLSCLASRMSFSRRPMAWYRQAPGKQRERVATISSFGDTTNYTDSVEGRFTISRDNAKNTMYLQMNSLKPDDTAVYYCNTLLATYAWGQGTQVTVSS	0.2	–	0.1	0.2	–	–
JKO-H2 (VHH, also called JKO-H12) VHH: QVQLAESGGGLVQAGGSLRLSCAASGRTFSSYVMGWFRQAPGKEREFVAAISRNGGKTYYADSVKGRFTISRDGTENTVYLQMNSLKPEDTAVYYCAAAVAASAEFVTARSNFYEYWGQGTQVTVSS	4	–	0.6	–	–	–
